Assay results published in patent publication US6132731, “Murine leukemia virus vectors” (Oxford Biomedica (UK) Limited, dated 2000).

Key:
VLA4 receptor (human) = VLA4 receptor (human) (UniProt P13612)
VLA5 receptor = VLA5 receptor (human, UniProt P08648); assay: cell-based or functional assay
VLA3 receptor = VLA3 receptor (human, UniProt P26006); assay: cell-based or functional assay
VLA4 receptor = VLA4 receptor (human, UniProt P13612); assay: cell-based or functional assay

amphotropic MLV envelope (isolate 4070a) (plasmid pHIT456)
viral titer of pHIT456 (amphotropic) virus on U937 cells in the presence of anti-VLA4 antibody (VLA4 receptor (human)): 40000 viral titer

B1: hybrid ecotropic MLV envelope with FLA16 at site II (plasmid pHIT508) (other)
chain: ASPGSSPHQVYNITWEVTNGDRETVWATSGNHPLWTWWPDLTPDLCMLAHHGPSYWGLEYQSPFSSPPGPPCCSGGSSPGCSRDCEEPLTSLTPRCNTAWNRLKLDQTTHKSNEGFYVCQGATFALRGDNPQGCGGPDSFYCAYWGCETTGRAYWKPSSSWDFITVNNNLTSDQAVQVCKDNKWCNPLVIRFTDAGRRVTSWTTGHYWGLRLYVSGQDPGLTFGIRLRYQNLGPRVPIGPNPVLADQQPLSKPKPVKSPSVTKPPSGTPLSPTQLPPAGTENRLLNLVDGAYQALNLTSPDKTQECWLCLVAGPPYYEGVAVLGTYSNHTSAPANCSVASQHKLTLSEVTGQGLCIGAVPKTHQALCNTTQTSSRGSYYLVAPTGTMWACSTGLTPCISTTILNLTTDYCVLVELWPRVTYHSPSYVYGLFERSNRHKREPVSLTLALLLGGLTMGGIAAGIGTGTTALMATQQFQQLQAAVQDDLREVEKSISNLEKSLTSLSEVVLQNRRGLDLLFLKEGGLCAALKEECCFYADHTGLVRDSMAKLRERLNQRQKLFESTQGWFEGLFNRSPWFTTLISTIMGPLIVLLMILLFGPCILNRLVQFVKDRISVVQALVLTQQYHQLKPIEYEP
viral titer on U937 cells (lacZ delivery, X-gal staining) (VLA5 receptor): 150 viral titer | viral titer on U937 cells (lacZ delivery, X-gal staining) (VLA3 receptor): 150 viral titer

B2: hybrid ecotropic MLV envelope with the VCAM-1 sequence at site II (plasmid pHIT510) (other)
chain: ASPGSSPHQVYNITWEVTNGDRETVWATSGNHPLWTWWPDLTPDLCMLAHHGPSYWGLEYQSPFSSPPGPPCCSGGSSPGCSRDCEEPLTSLTPRCNTAWNRLKLDQTTHKSNEGFYVCTIDSPLNCGGPDSFYCAYWGCETTGRAYWKPSSSWDFITVNNNLTSDQAVQVCKDNKWCNPLVIRFTDAGRRVTSWTTGHYWGLRLYVSGQDPGLTFGIRLRYQNLGPRVPIGPNPVLADQQPLSKPKPVKSPSVTKPPSGTPLSPTQLPPAGTENRLLNLVDGAYQALNLTSPDKTQECWLCLVAGPPYYEGVAVLGTYSNHTSAPANCSVASQHKLTLSEVTGQGLCIGAVPKTHQALCNTTQTSSRGSYYLVAPTGTMWACSTGLTPCISTTILNLTTDYCVLVELWPRVTYHSPSYVYGLFERSNRHKREPVSLTLALLLGGLTMGGIAAGIGTGTTALMATQQFQQLQAAVQDDLREVEKSISNLEKSLTSLSEVVLQNRRGLDLLFLKEGGLCAALKEECCFYADHTGLVRDSMAKLRERLNQRQKLFESTQGWFEGLFNRSPWFTTLISTIMGPLIVLLMILLFGPCILNRLVQFVKDRISVVQALVLTQQYHQLKPIEYEP
viral titer on U937 cells (lacZ delivery, X-gal staining) (VLA4 receptor): 150 viral titer
